Publication PMC10320842
Positions count from the first letter of the chain named.

T1: hRev1 330-833 WT (human, UniProt Q9UBZ9 330-833)
T1 sequence: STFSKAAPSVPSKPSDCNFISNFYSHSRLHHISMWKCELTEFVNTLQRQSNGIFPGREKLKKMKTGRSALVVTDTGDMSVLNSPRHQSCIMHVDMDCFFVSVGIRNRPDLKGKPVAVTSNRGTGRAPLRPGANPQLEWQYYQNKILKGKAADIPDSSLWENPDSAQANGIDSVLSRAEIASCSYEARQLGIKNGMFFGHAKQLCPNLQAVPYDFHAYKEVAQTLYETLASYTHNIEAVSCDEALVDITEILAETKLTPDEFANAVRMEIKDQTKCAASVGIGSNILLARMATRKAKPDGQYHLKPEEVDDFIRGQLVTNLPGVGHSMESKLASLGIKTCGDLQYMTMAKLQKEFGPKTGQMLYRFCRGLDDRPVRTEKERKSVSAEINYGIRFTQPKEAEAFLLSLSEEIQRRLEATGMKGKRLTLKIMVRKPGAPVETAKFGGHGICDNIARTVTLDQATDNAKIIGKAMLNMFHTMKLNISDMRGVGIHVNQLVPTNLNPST

T2: yRev1 305-746 (Saccharomyces cerevisiae, UniProt P12689 305-746)
T2 sequence: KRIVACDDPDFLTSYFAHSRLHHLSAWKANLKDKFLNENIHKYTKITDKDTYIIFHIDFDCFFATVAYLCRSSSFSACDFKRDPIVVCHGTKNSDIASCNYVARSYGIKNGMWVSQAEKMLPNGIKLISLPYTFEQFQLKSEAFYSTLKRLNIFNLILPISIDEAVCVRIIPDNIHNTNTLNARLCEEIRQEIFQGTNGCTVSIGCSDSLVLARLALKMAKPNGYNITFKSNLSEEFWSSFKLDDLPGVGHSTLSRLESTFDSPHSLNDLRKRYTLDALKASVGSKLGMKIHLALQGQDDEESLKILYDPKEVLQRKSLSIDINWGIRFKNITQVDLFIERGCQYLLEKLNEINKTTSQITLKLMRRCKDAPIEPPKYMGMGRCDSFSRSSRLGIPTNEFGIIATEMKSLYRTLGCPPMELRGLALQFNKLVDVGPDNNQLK

T3: hRev1 330-833 EY (human, UniProt Q9UBZ9 330-833, E466A;Y470A)
T3 sequence: T1 sequence with E137A, Y141A

B1: ss-42-mer non-G4 (ssDNA)
DNA: GTGAGATGTTGACCATGGGTGCGTCTGCGGCTGGCTCGAGGC
B2: 13/42-mer non-G4 (mixed)
DNA 1: B1 DNA
DNA 2: TTTGCCTCGAGCCAGC
B3: 23/42-mer non-G4 (mixed)
DNA 1: B1 DNA
DNA 2: TTTGCCTCGAGCCAGCCGCAGACGCA
B4: ss-42-mer Myc G4 (structured_DNA)
DNA: TGAGGGTGGGTAGGGTGGGTGCGTCTGCGGCTGGCTCGAGGC
B5: 23/42-mer G4 (mixed)
DNA 1: B4 DNA
DNA 2: TTTGCCTCGAGCCAGCCGCAGACGCA
B6: 13/42-mer G4 (mixed)
DNA 1: B4 DNA
DNA 2: TTTGCCTCGAGCCAGC
B7: ss non-G4 Myc (ssDNA)
DNA: AGCGTGCGTAGCGTGCGTTATGAGATGAT
B8: p/t non-G4 TBA (mixed)
DNA 1: TGCTTGCTGTGCTTGCTATGAGATGAT
DNA 2: ATCATCTCATA
B9: p/t non-G4 Myc (mixed)
DNA 1: AGCGTGCGTAGCGTGCGTTATGAGATGAT
DNA 2: ATCATCTCATA
B10: ss non-G4 Telo-4 (ssDNA)
DNA: TTGCGTTAGCGTTAGCGTTAGCGATATGAGATGAT
B11: ss non-G4 TBA (ssDNA)
DNA: TGCTTGCTGTGCTTGCTATGAGATGAT

target: T1, hRev1 330-833 WT; assay: fluorescence polarization

For B1, which Kd is on record?
Its Kd is 85 ± 11 nM.

How did the Kd turn out when B2 was run?
The Kd was 230 ± 30 nM.

Which Kd does the source give for B3 here?
Its Kd is 210 ± 30 nM.

Which Kd does the source give for B4 here?
Its Kd is 4 ± 1 nM.

With B5 as the binder, how does the Kd read?
Its Kd is 88 ± 12 nM.

How did the Kd turn out when B6 was run?
The Kd was 31 ± 6 nM.

target: T2, yRev1 305-746; assay: fluorescence polarization

With B7 as the binder, how does the Kd read?
The Kd was 340 ± 60 nM.

How did the Kd turn out when B8 was run?
The Kd was 450 ± 30 nM.

For B1, which Kd is on record?
Its Kd is 340 ± 60 nM.

For B3, which Kd is on record?
Its Kd is 460 ± 50 nM.

For B9, which Kd is on record?
The Kd was 480 ± 40 nM.

With B4 as the binder, how does the Kd read?
The Kd was 230 ± 50 nM.

How did the Kd turn out when B10 was run?
The Kd was 310 ± 40 nM.

Which Kd does the source give for B11 here?
Its Kd is 450 ± 70 nM.

target: T3, hRev1 330-833 EY; assay: fluorescence polarization

For B7, which Kd is on record?
Its Kd is 650 ± 130 nM.

How did the Kd turn out when B8 was run?
The Kd was 230 ± 30 nM.

How did the Kd turn out when B1 was run?
Its Kd is 270 ± 50 nM.

Which Kd does the source give for B2 here?
The Kd was 250 ± 30 nM.

B3 was tested. Which Kd did it give?
Its Kd is 300 ± 40 nM.

With B9 as the binder, how does the Kd read?
Its Kd is 830 ± 120 nM.

Which Kd does the source give for B4 here?
The Kd was 87 ± 10 nM.

B11 was tested. Which Kd did it give?
The Kd was 150 ± 20 nM.
